The values below come from patent US9513240B2, “MEMS-based calorimeter, fabrication, and use thereof” (The Trustees of Columbia University in the City of New York, priority 2011, dated 2016).

The conditions of data set [1]: typical range; cited from earlier work.
A short description of data set [2]: MEMS DSC measurement of lysozyme unfolding. The class given is physicochemical. The settings on record: lysozyme 1 to 20 mg/mL in 0.1 M Glycine-HCl buffer (pH 2.5); scan 25-75° C. at 5° C./min. On the procedure:
DSC measurements of biomolecules were performed using the calibrated microdevice, whose sample chamber and reference chamber were respectively filled with biological sample and buffer solutions, scanned in a range of temperature of interest. The temperature sensors were used to monitor the temperatures of calorimetric chambers while the device output was obtained in real time to compute the biomolecular thermal power. Before DSC measurements, the baseline in device output, i.e., the thermopile output voltage in the absence of a differential power input, during temperature scanning was measured with both calorimetric chambers filled with buffer solutions. Biological sample and buffer solutions were degassed with a vacuum chamber built in-house, metered with micropipettes, and introduced by a syringe pump (New Era Pump Systems, NE 1000).
The calibrated MEMS DSC device was employed to characterize protein unfolding, a common type of biomolecular conformational transition.
The thermopile output voltage as a function of temperature, corrected by baseline subtraction, was measured at varying protein concentrations ranging from 1 to 20 mg/mL (FIG. 10). […]
(Differential scanning calorimetry records heat flow against a reference as temperature is scanned.)

Data set [3] can be described thus: MEMS AC-DSC measurement of lysozyme unfolding. It is filed as physicochemical. From the text:
The DSC measurement system was configured similarly to that of Example 2. The microdevice was also placed in a thermal enclosure built in-house. The temperature of the sample stage in the thermal enclosure was controlled in closed-loop via a proportional-integral-derivative (PID) algorithm implemented by a commercial temperature controller (Lakeshore 331). The on-chip microheaters driven by a DC power supply (Agilent E3631A) were used to generate a constant differential power input, while for modulated heating, a square-wave AC voltage generated by a waveform generator (Agilent 33220A) was applied (FIG. 13). […] During device calibration, the thermopile output voltage was measured by a nanovoltmeter (Agilent 34420A), while during AC-DSC measurement, the amplitude and phase of thermopile voltage were measured by a lock-in amplifier (Stanford Research Systems SR830) referenced by the same AC modulation square wave from the waveform generator. […]
The methods for calibrating the DC performance of the MEMS device were substantially the same as described in Example 2. The baseline in device output, i.e., the thermopile voltage with no differential power input during temperature scanning, was measured with both chambers filled with buffer solutions. […]

For lysozyme, in data set [1], the “Tm, published data” value was 55-58.9 °C and the “ΔH of unfolding, published data” value is 90.1 to 105 kcal/mol. Also, in data set [2], the “melting temperature Tm” value was “approximately 55 °C” and the “total change of molar enthalpy (ΔH) of unfolding” value was “approximately 450 kJ/mol”. The “apparent melting temperature (Tm)” value in data set [3] (10 and 20 mg/mL in 0.1 M Glycine-HCl buffer, pH 2.5, 25 to 82° C. at 5° C./min, modulation 1, 5 or 10 Hz) is 55-58 °C. For the same substance, in data set [3] (regardless of the modulation frequency), the “difference in the specific heat capacity (Δc) between native and unfolded states” value came out at 3.0 kJ/mol·K.
